# Patent US20260167702A1, “HUMAN BROADLY CRO[…] […] METHODS OF USE THEREOF” (Dana-Farber Cancer Institute, Inc., priority 2021, published 2026)
# Values joined by “and” are separate entries in the source; they are usually repeats but may differ in a detail not shown here. Equal entries are not always repeated. “Also recorded” adds a separate entry of the source. Where two headings read alike, the source gives them in different places.
# B1: 3I14: human broadly neutralizing anti-influenza A HA stem mAb from memory B cells; VH SEQ ID NO: 2, VL SEQ ID NO: 4 (antibody, V domains shown)
# VH: QVQLLESGGGVVQPGRSLRLSCAASGFTFSNYGMHWVRQAPGKGLEWVAIISFDGSKKYYANSVKGRSTISRDNSKNTLSLQMNSLGPEDTALYYCAKLPSPYYFDSRFVWVAASAFHFWGQGILVTVSS
# VL: NFMLTQPPSASGTPGQRVTISCSGSSSNIGGNTVHWFQQLPGTAPKLLIYTNSLRPSGVPDRFSGSKSGTSASLAISGLQSEDEADYYCAAWDDSLNGQVFGGGTKLTVL
# B2: 3I14 Fab: Fab of 3I14 used in the binding competition ELISA (antibody, V domains shown)
# VH: B1 VH
# VL: B1 VL
# B3: MHAA4549A: Genentech broadly neutralizing influenza A mAb (antibody, chains of the INN, looked up, V domains shown)
# VH: EVQLVESGGGVVQPGKSLRLSCAASGLTFSSYAVHWVRQAPGKGLEWVTLISYDGANQYYADSVKGRFTISRDNSKNTVYLQMNSLRPEDTAVYYCAVPGPVFGIFPPWSYFDNWGQGILVTVSS
# VL: EIVLTQSPATLSVSPGERATLSCRASQVISHNLAWYQQKPGQAPRLLIYGASTRASGIPARFSGSGSGTDYTLTITSLQSEDFAVYYCQHYSNWPPRLTFGGGTKVEIK
# Key:
# binding [1] = system: binding; set-up: species or system influenza A virus
# binding [2] = system: binding; set-up: species or system influenza A virus; remark: listed apart in the source
# binding [3] = biological target: binding; set-up: species or system influenza A virus; details: read-out: mean Kd H5-IN05
# binding [4] = system: binding; set-up: species or system influenza A virus; remark: listed apart in the source
# cell_based [5] = system: T1, cell_based; set-up: species or system influenza A virus
# T1 construct: other: purified scFvFc antibodies; transfected 293T cells; The full length HA genes of ... were cloned into pcDNA3.1 vector and transfected into 293T/17 cells to produce cell surface expressed HA
# cell_based [6] = system: cell_based; set-up: species or system influenza A virus
# cell_based [7] = system: cell_based; set-up: species or system influenza A virus; remark: listed apart in the source
# in_vivo [8] = system: in_vivo; set-up: species or system BALB/c mice
# in_vivo [9] = system: in_vivo; set-up: species or system BALB/c mice; remark: listed apart in the source
# in_vivo [10] = system: in_vivo; set-up: species or system BALB/c mice; remark: listed apart in the source
# in_vivo [11] = system: in_vivo; set-up: species or system BALB/c mice; remark: listed apart in the source
# biochemical_functional = system: biochemical_functional; set-up: species or system influenza A virus; details: pH 8
# cell_based [12] = system: cell_based; set-up: species or system influenza A virus; remark: listed apart in the source
# cell_based [13] = system: cell_based
# cell_based [14] = system: cell_based; remark: listed apart in the source
# binding [15] = system: binding; set-up: species or system influenza A virus; remark: listed apart in the source
# binding [16] = system: binding; set-up: species or system influenza A virus; remark: listed apart in the source
# in_vivo [17] = assay: Influenza ADE study in mice, lung virus load by plaque assay; set-up: species or system BALB/c mice
# Description: Graphs of lung virus load vs dose in 3I14 (left) and 3I14 LALA (right) in an influenza antibody-dependent enhancement study in mice.
# 3I14 LALA avoids antibody-dependent enhancement (ADE).
# binding [18] = biological target: binding (Influenza A virus, UniProt C3W5S1)
# binding [19] = details: read-out: mean Kd H9-HK99
# cell_based [20] = biological target: cell_based (Influenza A virus, UniProt C3W5S1)
# cell_based [21] = biological target: cell_based (Influenza A virus, UniProt P03452)
# binding [22] = system: binding; set-up: species or system influenza A virus; remark: listed apart in the source
# in_vivo [23] = details: cited from earlier work
# in_vivo [24] = details: oseltamivir combined with up to 8,400 mg antibody; cited from earlier work
# Sequence of cell_based (Influenza A virus, UniProt P03452) (P03452 344-565): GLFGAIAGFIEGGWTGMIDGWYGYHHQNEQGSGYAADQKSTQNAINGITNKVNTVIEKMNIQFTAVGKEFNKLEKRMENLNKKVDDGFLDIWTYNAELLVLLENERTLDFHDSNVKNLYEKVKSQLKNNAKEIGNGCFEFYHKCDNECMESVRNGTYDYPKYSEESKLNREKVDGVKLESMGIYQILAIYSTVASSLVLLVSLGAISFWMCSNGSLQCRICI
# Sequence of cell_based (Influenza A virus, UniProt P03452) (P03452 18-343): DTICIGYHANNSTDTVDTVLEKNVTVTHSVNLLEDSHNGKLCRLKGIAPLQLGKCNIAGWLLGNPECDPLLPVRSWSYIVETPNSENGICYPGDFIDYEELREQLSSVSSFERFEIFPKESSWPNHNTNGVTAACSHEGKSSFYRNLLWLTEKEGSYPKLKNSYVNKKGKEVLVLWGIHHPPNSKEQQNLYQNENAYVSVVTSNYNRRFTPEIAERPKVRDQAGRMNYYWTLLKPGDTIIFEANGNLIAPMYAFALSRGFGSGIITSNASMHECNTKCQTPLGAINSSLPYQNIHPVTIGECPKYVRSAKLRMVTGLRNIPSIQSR
molecule,measurement,setting,value
B1,Koff H5-VN04,binding [1],0.000383 s⁻¹ and 0.000387 s⁻¹
same,Kon H5-VN04,binding [1],375000 M⁻¹ s⁻¹ and 327000 M⁻¹ s⁻¹
same,Koff H3-PE09,binding [2],3.99e-05 s⁻¹
same,Kon H3-PE09,binding [2],152000 M⁻¹ s⁻¹
same,binding to trimeric full-length H3 A/Perth/16/09,binding [2],bound
same,Kd,binding [3],1.05 nM
same,affinity for H1 subtypes,binding [4],high affinity
same,binding to cell surface-expressed HAs by flow cytometry,cell_based [5],bound
same,IC50 H3-BR07 infectious virus,cell_based [6],0.3054 µg/mL
same,IC50 H5-VN04 pseudovirus,cell_based [7],0.08158 µg/mL
same,"body weight loss, H7N7-NL219 challenge",in_vivo [8],minimal body weight loss
same,"protection from death, H7N7-NL219 challenge",in_vivo [8],fully protected
same,"body weight loss, H7N9-AH13 challenge",in_vivo [9],minimal body weight loss
same,"protection from death, H7N9-AH13 challenge",in_vivo [9],fully protected
same,protection against H3N2-BR07,in_vivo [10],80%
same,"protection against H3N2-BR07, over doses",in_vivo [10],60-80%
same,protection against H5N1-VN04,in_vivo [11],60%
same,"protection against H5N1-VN04, over doses",in_vivo [11],20-60%
same,prevention of trypsin cleavage of immature HA0,biochemical_functional,prevented cleavage of immature HA0
same,HA1-HA2 dissociation after DTT treatment,cell_based [12],prevented HA1-HA2 dissociation
same,binding to dissociated HA2 mediated by DTT reduction,cell_based [12],did not bind
same,binding to uncleaved HA precursor (HA0) and mature forms (HA),cell_based [12],binds to both uncleaved HA precursor (HA0)
same,inhibition of pH-dependent HA rearrangement,cell_based [12]; pH 4.9,inhibits the pH-dependent HA rearrangement
same,"luciferase response in Jurkat reporter cells (ADCC), H3 targets",cell_based [13],induced a significant luciferase response
same,"luciferase response in Jurkat reporter cells (ADCC), H5 targets",cell_based [14],"at a lower level than FI6v3, CR9114, 39.29 and F10"
same,inhibition of binding of 39.29 and F10 to H5-VN04,binding [15],inhibited; also recorded: partially inhibits
same,inhibition of binding of anti-H5 head antibody 2A to H5-VN04,binding [15],did not inhibit; also recorded: does not inhibit
same,binding to HA1 subunit of H3 PE-09,binding [16],did not bind
same,virus levels in the lungs at high doses,in_vivo [17]; doses ≥5 mg/kg,reduced virus levels
same,"increase of viral titers in lung tissue, 3I14 compared to 3I14 LALA",in_vivo [17]; intermediate low dose levels,~2 fold
same,virus levels in the lungs compared with controls,"in_vivo [17]; intermediate low dose levels, IP 1 hour prior to intranasal challenge, Day 4",~2 fold
same,Koff H1-CA09,binding [18],4.87e-05 s⁻¹
same,Kon H1-CA09,binding [18],174000 M⁻¹ s⁻¹
same,Kd,binding [18]; read-out: Kd H1-CA09,0.279 nM
same,Kd,binding [19],5.23 nM
same,IC50 H1-CA09,cell_based [20],0.225 µg/mL
same,IC50 H1-PR8,cell_based [21],0.413 µg/mL
B2,competition with E730 (anti-HA1 head Ab) for binding to H3-BR07,binding [22],did not compete
same,"competition with anti-stem Abs CR8020, CR9114, FI6(v3) and 39.29 for binding to H3-BR07",binding [22],cross-competed; also recorded: strongly inhibits
B3,viral load,"in_vivo [23]; 1200 mg, listed as MHAA4549A/Gedivumab",increase in viral load
same,viral loads,in_vivo [23]; 400 and 3600 mg,reduction in viral loads
same,O2 or ventilation support,in_vivo [24],required increase in O2 or ventilation support
same,duration of viral shedding,in_vivo [24],increased duration of viral shedding
same,fatality due to any cause,in_vivo [24],higher fatality percentage due to any cause
